Assay [1] concerns the target T1, huPCSK9-His，重组人PCSK9胞外区His融合蛋白 (human, UniProt Q8NBP7 31-692, biotin-labelled in the ELISA and in the LDL-R blocking assay (sites not given)).
T1 construct: Bought (Novoprotein CA83); The printed entry already includes the His tag; also called 人PCSK9-His; 人源PCSK9
Description: ELISA, biotin-labelled PCSK9-His captured on neutravidin-coated plate.

Assay [2] has as its target T2, cyPCSK9，猕猴PCSK9胞外区His融合蛋白 (猕猴 (macaque), UniProt A8T662 31-692, biotin-labelled in the ELISA (sites not given)).
T2 construct: Bought (Novoprotein CA87); The printed entry includes the His tag
The assay is described as above.

The target of assay [3] is T1, huPCSK9-His，重组人PCSK9胞外区His融合蛋白. Description: cell-based or functional assay.
The target is the same in assay [4]. Kind of assay: BLI (ForteBio), chF3-9 captured on anti-human Fc (AHC) sensor, PCSK9 in solution, 1:1 global fit. For orientation: In BLI a coated tip is dipped into the sample, and binding shifts an interference pattern.
The target in assay [5] is T2, cyPCSK9，猕猴PCSK9胞外区His融合蛋白. The assay is described as above.

T1 sequence (Q8NBP7 other isoform, or with tags, fused parts or gaps limits assumed): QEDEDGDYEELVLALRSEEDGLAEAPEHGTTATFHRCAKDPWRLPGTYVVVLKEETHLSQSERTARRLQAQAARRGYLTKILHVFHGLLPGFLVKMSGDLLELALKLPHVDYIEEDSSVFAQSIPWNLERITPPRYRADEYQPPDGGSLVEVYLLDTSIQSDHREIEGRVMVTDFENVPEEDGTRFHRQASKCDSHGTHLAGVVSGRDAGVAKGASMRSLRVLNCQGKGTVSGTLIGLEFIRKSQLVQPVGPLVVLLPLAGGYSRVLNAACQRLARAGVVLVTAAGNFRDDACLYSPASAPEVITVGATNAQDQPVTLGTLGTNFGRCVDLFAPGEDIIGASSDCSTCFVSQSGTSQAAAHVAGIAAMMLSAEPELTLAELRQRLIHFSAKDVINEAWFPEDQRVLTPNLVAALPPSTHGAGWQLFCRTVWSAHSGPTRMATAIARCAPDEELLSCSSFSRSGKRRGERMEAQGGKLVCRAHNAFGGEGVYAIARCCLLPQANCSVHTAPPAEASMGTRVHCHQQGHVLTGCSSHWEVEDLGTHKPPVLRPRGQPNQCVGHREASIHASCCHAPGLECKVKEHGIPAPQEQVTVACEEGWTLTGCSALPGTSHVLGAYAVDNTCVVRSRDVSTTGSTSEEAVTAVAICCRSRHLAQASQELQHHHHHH
T2 sequence (A8T662 other isoform, or with tags, fused parts or gaps limits assumed, form in doubt): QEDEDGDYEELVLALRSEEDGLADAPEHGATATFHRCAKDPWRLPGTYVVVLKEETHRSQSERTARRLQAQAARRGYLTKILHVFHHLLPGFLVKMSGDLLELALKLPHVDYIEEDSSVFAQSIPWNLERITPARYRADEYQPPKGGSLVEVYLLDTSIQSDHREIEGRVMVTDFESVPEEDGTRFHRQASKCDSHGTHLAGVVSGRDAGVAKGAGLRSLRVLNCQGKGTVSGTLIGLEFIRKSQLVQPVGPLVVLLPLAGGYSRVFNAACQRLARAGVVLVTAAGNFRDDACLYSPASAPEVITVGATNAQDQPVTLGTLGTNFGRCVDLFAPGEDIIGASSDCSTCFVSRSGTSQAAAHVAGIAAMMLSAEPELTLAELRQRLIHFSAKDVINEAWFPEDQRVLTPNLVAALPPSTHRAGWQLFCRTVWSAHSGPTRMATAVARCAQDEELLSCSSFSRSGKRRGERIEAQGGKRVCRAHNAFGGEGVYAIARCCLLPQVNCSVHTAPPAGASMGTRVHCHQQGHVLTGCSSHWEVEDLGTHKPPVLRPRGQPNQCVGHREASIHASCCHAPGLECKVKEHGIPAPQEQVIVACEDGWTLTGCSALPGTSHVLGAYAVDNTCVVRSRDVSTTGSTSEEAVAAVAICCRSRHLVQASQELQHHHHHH

B1: 鼠单抗mF3-9 (antibody, V domains shown)
VH: QVQLQQSGAELVRPGSSVKISCKASGYSFSSYWMNWVKQRPGQGLEWIGQIYPGDGDTNFNGKFKGKATLTADKSSSTAYMQLSSLTSEDSAVYFCGNYDYDGEIPYWGQGTTLTVSS
VL: DIFLTQSPAILSVSPGERVNFSCRASQTIGTSLHWYQQRTNGSPRLLIKYASESISGIPSRFSGSGSGTEFTLRINSVESEDIADYYCQQSSKWPLTFGQGTKVEIK
notes: Mouse hybridoma monoclonal antibody; also called 鼠单抗F3-9; 抗体F3-9
As to B1, the EC50 – broadly, the concentration giving half of the maximal effect – in assay [1] came to 0.68 nM; in assay [2], 0.62 nM. Moreover, in assay [3], the “有效活性浓度(EC50), antagonism of PCSK9 inhibition of LDL uptake by HepG2 cells” value is 10 nM.

B2: 人-鼠嵌合型F3-9抗体(chF3-9) (antibody, IgG2, V domains shown)
VH: B1 VH
VL: B1 VL
notes: also called F3-9嵌合抗体; 嵌合PCSK9抗体F3-9
With B2, the dissociation constant (Kd) – broadly, the equilibrium constant for the complex coming apart – in assay [4] worked out at 0.42 nM; in assay [5], 1.27 nM.

(Values after CN106554420A (SHANGHAI UNION BIOPHARM CO LTD; LI JUN, dated 2017).)
